Here are results for one substance from patent US20210340225A1.

In experiment [1] the target is prefusion stabilised SARS-CoV spike ectodomain trimer, residues 1-1160, two proline substitutions, T (SARS-CoV). The experiment can be described thus: ELISA, 47D11 titrated on coated spike ectodomain. Background: ELISA stands for enzyme-linked immunosorbent assay.
The target is the same in experiment [2]. The experiment can be described thus: ELISA: spike ectodomain coated on the plate, 47D11 titrated, OD450nm.

For orientation: EC50 (read off the curve) means the concentration that produces a half-maximal response. Low values mean greater potency, high ones weaker potency. With “47D11 fully human IgG1 monoclonal antibody”, the EC50 (read off the curve) in experiment [1] and in experiment [2] was 0.2 nM each time.
